Biological target: T1, GST-MYCBP2cat (Homo sapiens, UniProt O75592)
T1 construct: GST-tagged MYCBP2cat (Ser4378-Phe4640), wt and mutants, were expressed at 16° C. overnight; made in house; host or cells: E. coli BL21-DE3
T1 sequence (O75592 4416-4678 limits assumed): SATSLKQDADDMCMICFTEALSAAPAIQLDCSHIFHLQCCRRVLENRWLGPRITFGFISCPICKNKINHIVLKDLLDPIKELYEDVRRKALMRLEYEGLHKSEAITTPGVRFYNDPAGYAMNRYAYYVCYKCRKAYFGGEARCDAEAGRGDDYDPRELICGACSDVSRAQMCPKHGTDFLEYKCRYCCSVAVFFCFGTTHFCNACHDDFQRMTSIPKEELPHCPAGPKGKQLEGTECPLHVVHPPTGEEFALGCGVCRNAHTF
Assay: Multiple turnover E2 discharge panel (threonine discharge)
Assay type: biochemical
Conditions: 17 E2s tested
Protocol: E2s were screened for threonine discharge activity with GST-MYCBP2cat as described for the amino acid panel. E2s were also incubated in the presence of threonine but in the absence of GST-MYCBP2cat. These samples provided a reference to distinguish between intrinsic E2˜Ub instability and E3-dependent discharge.

E2 partner activity with MYCBP2cat: robust activity
B1: UBE2E1: E2 conjugating enzyme (protein, UniProt P51965 2-193, looked up)
Ubiquitin-conjugating enzyme …: SDDDSRASTSSSSSSSSNQQTEKETNTPKKKESKVSMSKNSKLLSTSAKRIQKELADITLDPPPNCSAGPKGDNIYEWRSTILGPPGSVYEGGVFFLDITFTPEYPFKPPKVTFRTRIYHCNINSQGVICLDILKDNWSPALTISKVLLSICSLLTDCNPADPLVGSIATQYMTNRAEHDRMARQWTKRYAT

— patent US20210017569A1, “Ligase Screening Assay” (UNIVERSITY OF DUNDEE, priority 2018, published 2021)
